From article PMC7527728, “CPSF6-Dependent Targeting of Speckle-Associated Domains Distinguishes Primate from Nonprimate Lentiviral Integration” (mBio, 2020)
Where two headings read alike, the source gives them in different places.

How the values were obtained:
SIVmac [1] = test: CPSF6-358 restriction assay, SIVmac; format: cell-based; conditions: HEK293T expressing CPSF6-358 vs vector, Luc virus, range of virus inocula (Fig. 5C)
Procedure: (§1) Vector control HEK293T cells were infected with GFP viruses at approximate MOIs of 0.4 to 0.5 alongside cells expressing CPSF6-358 (Fig. 5A).
(§2) HEK293T cells were cultured at 37°C in Dulbecco’s modified Eagle’s medium containing 10% (vol/vol) fetal bovine serum (FBS), 100 IU/ml penicillin, and 100 μg/ml streptomycin (DMEM) in humidified incubators in the presence of 5% CO2.
(§3) Single-cycle GFP and Luc reporter viruses were produced by cotransfection of HEK293T cells in 10-cm dishes with 15 μg total of various ratios of virus production plasmids using PolyJet DNA transfection reagent (SignaGen Laboratories). […] Concentrations of retroviral particles in mU/ml were determined using a TaqMan-based product-enhanced reverse transcriptase (Taq-PERT) real-time PCR assay ([80]).
(§4) Infections were conducted in duplicate in 24-well plates (10^5 cells/well). […] GFP reporter viral MOIs were determined as percentage of GFP-positive cells using a FACSCanto flow cytometer (BD Biosciences). […] Cell lysates were centrifuged at 17,500 × g for 8 min, and supernatants were analyzed in triplicate for luciferase activity. Relative light units (RLU), determined by luminometer (Berthold Technologies), were normalized to total protein concentration as measured by Pierce BCA protein assay kit (Thermo Fisher Scientific).

FIV = test: CPSF6-358 restriction assay, FIV; format: cell-based; conditions: HEK293T expressing CPSF6-358 vs vector control, GFP virus, MOI 0.4 to 0.5, 48 h (Fig. 5B)
Procedure: as §1, §2, §3, §4

MLV = test: CPSF6-358 restriction assay, MLV; format: cell-based; conditions: HEK293T expressing CPSF6-358 vs vector control, GFP virus, MOI 0.4 to 0.5, 48 h (Fig. 5B)
Procedure: as §1, §2, §3, §4

BIV = test: CPSF6-358 restriction assay, BIV; format: cell-based; conditions: HEK293T expressing CPSF6-358 vs vector control, GFP virus, MOI 0.4 to 0.5, 48 h (Fig. 5B)
Procedure: as §1, §2, §3, §4

EIAV = test: CPSF6-358 restriction assay, EIAV; format: cell-based; conditions: HEK293T expressing CPSF6-358 vs vector control, GFP virus, MOI 0.4 to 0.5, 48 h (Fig. 5B)
Procedure: as §1, §2
(§5) Infections were conducted in duplicate in 24-well plates (10^5 cells/well). After 6 to 8 h, medium was replaced with fresh DMEM or RPMI, and cells were harvested at 48 h from the start of the experiment. GFP reporter viral MOIs were determined as percentage of GFP-positive cells using a FACSCanto flow cytometer (BD Biosciences).

primate lentiviruses = test: CPSF6-358 restriction assay, primate lentiviruses; format: cell-based; conditions: HEK293T expressing CPSF6-358 vs vector control, GFP viruses, MOI 0.4 to 0.5, 48 h (Fig. 5B)
Procedure: as §1, §2, §5

HIV-1 [2] = conditions: HEK293T expressing CPSF6-358 vs vector, Luc virus, range of virus inocula (Fig. 5C)
Procedure: as §1, §2, §3, §4

HIV-2 = system: HIV-2; parameters: method as in PMID 20227665; conditions: cited from earlier work
SIVmac [3] = system: SIVmac; parameters: method as in 2 sources, ref 33 = [33]; PMID 20227665; doi:10.1016/j.chom.2010.02.007; 33. Lee K , Ambrose Z , Martin TD , Oztop I , Mulky A , Julias JG , Vandegraaff N , Baumann JG , Wang R , Yuen W , Takemura T , Shelton K , Taniuchi I , Li Y , Sodroski J , Littman D , Coffin J , Hugh ||| ref 35 = [35]; PMID 24130490; doi:10.1371/journal.ppat.1003693; 35. Matreyek KA , Yücel SS , Li X , Engelman A 2013 Nucleoporin NUP153 phenylalanine-glycine motifs engage a common binding pocket within the HIV-1 capsid protein to mediate lentiviral infectivity . P; conditions: cited from earlier work
SIVmne = system: SIVmne; parameters: method as in PMID 20227665; conditions: cited from earlier work
HIV-1 [4] = conditions: cited from earlier work

B1: CPSF6-358 (protein, UniProt Q16630 1-358, looked up, fragment)
chain: MADGVDHIDIYADVGEEFNQEAEYGGHDQIDLYDDVISPSANNGDAPEDRDYMDTLPPTVGDDVGKGAAPNVVYTYTGKRIALYIGNLTWWTTDEDLTEAVHSLGVNDILEIKFFENRANGQSKGFALVGVGSEASSKKLMDLLPKRELHGQNPVVTPCNKQFLSQFEMQSRKTTQSGQMSGEGKAGPPGGSSRAAFPQGGRGRGRFPGAVPGGDRFPGPAGPGGPPPPFPAGQTPPRPPLGPPGPPGPPGPPPPGQVLPPPLAGPPNRGDRPPPPVLFPGQPFGQPPLGPLPPGPPPPVPGYGPPPGPPPPQQGPPPPPGPFPPRPPGPLGPPLTLAPPPHLPGPPPGAPPPAPHVN
restriction of infection, in words (SIVmac [1]): restriction of HIV-1 and SIVmac-Luc viruses was observed across a range of virus inocula
restriction of infection, in words (FIV): did not significantly restrict FIV infection
restriction of infection, in words (MLV): MLV-GFP similarly infected control and CPSF6-358-expressing cells
restriction of infection, in words (BIV): infection by BIV was similarly unaffected
restriction of infection, in words (EIAV): failed to appreciably restrict EIAV infection
restriction of infection, in words (primate lentiviruses): potently restricted infection by primate lentiviruses
restriction of infection, in words (HIV-1 [2]): restriction of HIV-1 and SIVmac-Luc viruses was observed across a range of virus inocula
restriction of infection, in words (HIV-2): restricted infection
restriction of infection, in words (SIVmac [3]): restricted infection
restriction of infection, in words (SIVmne): restricted infection
restriction of infection, in words (HIV-1 [4]): restricted infection
